Assay results from patent US20220323583A1, “Pharmaceutical Formulations of Bi-Specific Diabodies and Use of the Same” (MacroGenics, Inc., priority 2019, published 2022).

Legend:
A498 = assay: Redirected killing of target cell line; assay type: cell-based; conditions: A498 (CD123 negative)
Molm13 = assay: Redirected killing of target cell line; assay type: cell-based
THP-1 = assay: Redirected killing of target cell line; assay type: cell-based
[1] = Sub-visible particle count, light obscuration (HIAC); assay type: physicochemical; conditions: for Subvisible Particles by USP <788> ≥2 μm/mL / Subvisible Particles by USP <788> ≥10 μm/mL / Subvisible Particles by USP <788> ≥25 μm/mL: Stabilizer 2; for Particle Counts/mL ≥10 μm / Particle Counts/mL ≥25 μm: Study 1, dual-pump infusion
Human CD3ε/δ = Human CD3ε/δ (Homo sapiens, UniProt P07766); assay: Binding of DART-A to CD3 (ka, kd, KD)
Human CD3ε/δ, sequence (P07766 23-126 limits assumed): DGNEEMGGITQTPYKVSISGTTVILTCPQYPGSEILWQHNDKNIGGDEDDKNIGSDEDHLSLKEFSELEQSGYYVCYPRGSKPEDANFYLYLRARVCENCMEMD
Human CD3ε/δ, sequence (P04234 22-105 partner limits assumed): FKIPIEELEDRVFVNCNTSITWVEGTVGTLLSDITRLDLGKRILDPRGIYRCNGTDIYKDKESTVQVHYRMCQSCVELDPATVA

TF-1 = assay: Redirected killing of target cell line; assay type: cell-based
pH = assay type: physicochemical; conditions: for pH: normal saline IV bag with Stabilizer 2
[2] = system: primary ALL bone marrow samples; assay: Incubation of primary ALL bone marrow samples with DART-A; assay type: cell-based, human; conditions: vs untreated control or Control DART
Description: Upregulation of granzyme B and perforin levels in both CD8 and CD4 T cells was observed.

Human CD123-His = molecular target: T1, Human CD123-His (Homo sapiens, UniProt P26951); assay: Binding of DART-A to CD123 (ka, kd, KD)
T1 sequence (P26951 19-378): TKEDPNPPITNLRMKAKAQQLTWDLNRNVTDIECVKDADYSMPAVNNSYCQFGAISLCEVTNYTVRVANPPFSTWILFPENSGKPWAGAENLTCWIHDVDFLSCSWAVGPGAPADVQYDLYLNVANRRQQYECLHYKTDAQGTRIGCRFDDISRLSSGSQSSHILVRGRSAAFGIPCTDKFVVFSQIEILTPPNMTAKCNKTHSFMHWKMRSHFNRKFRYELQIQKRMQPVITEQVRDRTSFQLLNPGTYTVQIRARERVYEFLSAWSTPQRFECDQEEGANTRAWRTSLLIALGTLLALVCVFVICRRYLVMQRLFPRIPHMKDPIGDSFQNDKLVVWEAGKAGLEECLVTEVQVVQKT

[3] = 10 ng/mL dosing solution, Post Infusion (Infusion Time = 48 Hrs)
[4] = 10 ng/mL dosing solution, Post Storage (T = 72 Hrs), room temperature
[5] = 10 ng/mL dosing solution, T = 0
[6] = 20 ng/mL dosing solution, Post Infusion (Infusion Time = 96 Hrs)
[7] = 20 ng/mL dosing solution, Post Storage (T =72 Hrs), room temperature
[8] = 20 ng/mL dosing solution, T = 0
[9] = 1250 ng/mL dosing solution, Post Infusion (Infusion Time = 48 Hrs)
[10] = 1250 ng/mL dosing solution, Post Storage (T = 72 Hrs), room temperature
[11] = 1250 ng/mL dosing solution, T = 0
[12] = High (5000 ng/mL), T = 24 hours
[13] = High (5000 ng/mL), T = 48 hours
[14] = High (5000 ng/mL), T = 72 hours

B1: DART-A: sequence-optimized CD123×CD3 bispecific diabody; chains SEQ ID NO:42 and SEQ ID NO:44 covalently bonded by a disulfide bond (protein)
chain 1: QAVVTQEPSLTVSPGGTVTLTCRSSTGAVTTSNYANWVQQKPGQAPRGLIGGTNKRAPWTPARFSGSLLGGKAALTITGAQAEDEADYYCALWYSNLWVFGGGTKLTVLGGGGSGGGGEVQLVQSGAELKKPGASVKVSCKASGYTFTDYYMKWVRQAPGQGLEWIGDIIPSNGATFYNQKFKGRVTITVDKSTSTAYMELSSLRSEDTAVYYCARSHLLRASWFAYWGQGTLVTVSSGGCGGGEVAALEKEVAALEKEVAALEKEVAALEK
chain 2: DFVMTQSPDSLAVSLGERVTMSCKSSQSLLNSGNQKNYLTWYQQKPGQPPKLLIYWASTRESGVPDRFSGSGSGTDFTLTISSLQAEDVAVYYCQNDYSYPYTFGQGTKLEIKGGGSGGGGEVQLVESGGGLVQPGGSLRLSCAASGFTFSTYAMNWVRQAPGKGLEWVGRIRSKYNNYATYYADSVKDRFTISRDDSKNSLYLQMNSLKTEDTAVYYCVRHGNFGNSYVSWFAYWGQGTLVTVSSGGCGGGKVAALKEKVAALKEKVAALKEKVAALKE
modifications: interchain disulfide bond; First Polypeptide Chain of DART-A; Second Polypeptide Chain of DART-A
A498
  Max % Killing: No activity
A498; E:T = 10:1
  EC50, redirected killing: No activity
Molm13
  Max % Killing: 43%
THP-1
  Max % Killing: 40%
[1]; [3]
  Subvisible Particles by USP <788> ≥2 μm/mL: 140 mL⁻¹
  Subvisible Particles by USP <788> ≥10 μm/mL: 2 mL⁻¹
  Subvisible Particles by USP <788> ≥25 μm/mL: 1 mL⁻¹
[1]; [4]
  Subvisible Particles by USP <788> ≥2 μm/mL: 192 mL⁻¹
  Subvisible Particles by USP <788> ≥10 μm/mL: 10 mL⁻¹
  Subvisible Particles by USP <788> ≥25 μm/mL: 1 mL⁻¹
[1]; [5]
  Subvisible Particles by USP <788> ≥2 μm/mL: 206 mL⁻¹
  Subvisible Particles by USP <788> ≥10 μm/mL: 7 mL⁻¹
  Subvisible Particles by USP <788> ≥25 μm/mL: 1 mL⁻¹
[1]; [6]
  Subvisible Particles by USP <788> ≥2 μm/mL: 85 mL⁻¹
  Subvisible Particles by USP <788> ≥10 μm/mL: 9 mL⁻¹
  Subvisible Particles by USP <788> ≥25 μm/mL: 3 mL⁻¹
[1]; [7]
  Subvisible Particles by USP <788> ≥2 μm/mL: 412 mL⁻¹
  Subvisible Particles by USP <788> ≥10 μm/mL: 8 mL⁻¹
  Subvisible Particles by USP <788> ≥25 μm/mL: 0 mL⁻¹
[1]; [8]
  Subvisible Particles by USP <788> ≥2 μm/mL: 344 mL⁻¹
  Subvisible Particles by USP <788> ≥10 μm/mL: 8 mL⁻¹
  Subvisible Particles by USP <788> ≥25 μm/mL: 0 mL⁻¹
[1]; [9]
  Subvisible Particles by USP <788> ≥2 μm/mL: 188 mL⁻¹
  Subvisible Particles by USP <788> ≥10 μm/mL: 4 mL⁻¹
  Subvisible Particles by USP <788> ≥25 μm/mL: 1 mL⁻¹
[1]; [10]
  Subvisible Particles by USP <788> ≥2 μm/mL: 146 mL⁻¹
  Subvisible Particles by USP <788> ≥10 μm/mL: 7 mL⁻¹
  Subvisible Particles by USP <788> ≥25 μm/mL: 1 mL⁻¹
[1]; [11]
  Subvisible Particles by USP <788> ≥2 μm/mL: 664 mL⁻¹
  Subvisible Particles by USP <788> ≥10 μm/mL: 21 mL⁻¹
  Subvisible Particles by USP <788> ≥25 μm/mL: 1 mL⁻¹
[1]; Stabilizer 2 dosing solutions
  subvisible particle counts ≥2 μm, ≥10 μm and ≥25 μm post-infusion vs T=0: did not increase
[1]; High (5000 ng/mL), T = 0
  Particle Counts/mL ≥10 μm: 14 Counts/mL
  Particle Counts/mL ≥25 μm: 1 Counts/mL
[1]; [12]
  Particle Counts/mL ≥10 μm: 2 Counts/mL
  Particle Counts/mL ≥25 μm: 1 Counts/mL
[1]; [13]
  Particle Counts/mL ≥10 μm: 0 Counts/mL
  Particle Counts/mL ≥25 μm: 0 Counts/mL
[1]; [14]
  Particle Counts/mL ≥10 μm: 0 Counts/mL
  Particle Counts/mL ≥25 μm: 0 Counts/mL
[1]; Low (100 ng/mL), T = 0
  Particle Counts/mL ≥10 μm: 5 Counts/mL
  Particle Counts/mL ≥25 μm: 0 Counts/mL
[1]; Low (100 ng/mL), T = 24 hours
  Particle Counts/mL ≥10 μm: 4 Counts/mL
  Particle Counts/mL ≥25 μm: 1 Counts/mL
[1]; Low (100 ng/mL), T = 48 hours
  Particle Counts/mL ≥10 μm: 7 Counts/mL
  Particle Counts/mL ≥25 μm: 0 Counts/mL
[1]; Low (100 ng/mL), T = 72 hours
  Particle Counts/mL ≥10 μm: 1 Counts/mL
  Particle Counts/mL ≥25 μm: 0 Counts/mL
Human CD3ε/δ
  ka (± SD): 5.7 (± 0.6) × 10^5 M^−1s^−1
  kd (± SD): 5.0 (± 0.9) × 10^−3 s^−1
Human CD3ε/δ; read-out: KD (± SD)
  Kd: 9 ± 2.3 nM
TF-1
  Max % Killing: 46%
pH; [3]
  pH: 8.1
pH; [4]
  pH: 8.1
pH; [5]
  pH: 8.1
pH; [6]
  pH: 7.9
pH; [7]
  pH: 8.1
pH; [8]
  pH: 8.1
pH; [9]
  pH: 8.0
pH; [10]
  pH: 8.0
pH; [11]
  pH: 8.0
pH; Stabilizer 2 dosing solutions
  changes in pH, visual appearance and osmolality post-infusion vs T=0: no significant changes in pH, visual appearance, and osmolality
[2]
  leukemic cell population: depletion of the leukemic cell population over time
Human CD123-His
  ka (± SD): 1.6 (± 0.4) × 10^6 M^−1s^−1
  kd (± SD): 1.9 (± 0.4) × 10^−4 s^−1
